Experiment [1] has as its target p63 (UniProt Q9H3D4). Nature of the experiment: co-immunoprecipitation from metastatic tissue. As to conditions: reference: Nur77 wild type; sites S351.
Experiment [2] has as its target p63 (UniProt Q9H3D4). Nature of the experiment: co-immunoprecipitation, Western blot. As to conditions: reference: Nur77 wild type; sites S351. A general note: A western blot detects proteins with antibodies after separation by electrophoresis.

As for Nur77 (from UniProt P22736) Nur77 S351A, the “binding against the reference” value in experiment [1] is on record as “weaker”; in experiment [2], “lost”.

These data come from publication PMC9817892.
